The values that follow come from patent US20240228586A1.

For the experiment, the target named is IL-12 receptor complex (IL-12Rb1 and IL-12Rb2) on preactivated primary mouse CD8+ T cells (mouse) (UniProt Q60837). Briefly: cell-based or functional assay.
Sequence of IL-12 receptor complex (IL-12Rb1 and IL-12Rb2) on preactivated primary mouse CD8+ T cells (mouse) (Q60837 20-738, chain 1 of 2): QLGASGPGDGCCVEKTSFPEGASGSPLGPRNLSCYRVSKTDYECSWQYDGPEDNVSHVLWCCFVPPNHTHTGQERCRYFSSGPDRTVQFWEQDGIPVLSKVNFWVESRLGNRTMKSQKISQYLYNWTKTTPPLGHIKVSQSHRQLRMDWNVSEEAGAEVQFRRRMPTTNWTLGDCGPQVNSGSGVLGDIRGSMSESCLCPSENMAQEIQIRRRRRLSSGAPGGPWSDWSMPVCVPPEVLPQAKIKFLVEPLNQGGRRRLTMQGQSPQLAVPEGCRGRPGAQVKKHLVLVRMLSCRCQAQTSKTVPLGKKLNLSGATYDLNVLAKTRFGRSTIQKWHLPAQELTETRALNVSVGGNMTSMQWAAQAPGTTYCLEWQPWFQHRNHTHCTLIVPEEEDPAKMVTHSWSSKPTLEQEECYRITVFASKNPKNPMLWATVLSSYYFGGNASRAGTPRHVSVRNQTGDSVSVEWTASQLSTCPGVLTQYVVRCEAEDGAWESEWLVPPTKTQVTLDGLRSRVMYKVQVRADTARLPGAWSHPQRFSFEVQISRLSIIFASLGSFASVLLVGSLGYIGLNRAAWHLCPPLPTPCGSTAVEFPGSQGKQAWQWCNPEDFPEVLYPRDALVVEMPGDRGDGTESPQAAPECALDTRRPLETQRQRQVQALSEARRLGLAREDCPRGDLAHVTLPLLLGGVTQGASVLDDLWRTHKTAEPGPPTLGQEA
Sequence of IL-12 receptor complex (IL-12Rb1 and IL-12Rb2) on preactivated primary mouse CD8+ T cells (mouse) (chain, as listed by the source, chain 2 of 2): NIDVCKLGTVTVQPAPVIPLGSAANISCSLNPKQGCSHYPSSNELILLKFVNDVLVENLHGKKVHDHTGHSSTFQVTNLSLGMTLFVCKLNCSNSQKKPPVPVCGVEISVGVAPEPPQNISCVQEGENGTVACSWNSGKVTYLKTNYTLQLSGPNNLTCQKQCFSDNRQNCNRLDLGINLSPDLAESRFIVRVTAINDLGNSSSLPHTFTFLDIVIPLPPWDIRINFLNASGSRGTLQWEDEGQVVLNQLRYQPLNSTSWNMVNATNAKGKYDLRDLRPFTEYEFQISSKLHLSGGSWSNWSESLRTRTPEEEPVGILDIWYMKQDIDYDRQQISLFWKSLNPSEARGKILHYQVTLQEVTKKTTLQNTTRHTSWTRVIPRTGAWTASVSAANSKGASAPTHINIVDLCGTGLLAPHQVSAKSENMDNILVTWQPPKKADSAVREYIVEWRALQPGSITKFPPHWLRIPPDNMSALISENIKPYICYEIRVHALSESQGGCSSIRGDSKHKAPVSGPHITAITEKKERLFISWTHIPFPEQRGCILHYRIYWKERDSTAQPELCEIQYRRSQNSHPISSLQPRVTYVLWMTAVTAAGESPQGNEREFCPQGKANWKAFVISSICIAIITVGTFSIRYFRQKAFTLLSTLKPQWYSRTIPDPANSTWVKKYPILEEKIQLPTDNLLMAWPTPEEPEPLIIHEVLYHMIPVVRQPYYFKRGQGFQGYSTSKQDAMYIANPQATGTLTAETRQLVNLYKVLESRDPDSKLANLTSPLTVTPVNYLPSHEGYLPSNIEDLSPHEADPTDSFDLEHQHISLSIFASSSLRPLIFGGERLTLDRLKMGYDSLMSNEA
As to “M-L1-IL12 (mouse IL-12Rb1 mask fused through the (G3S)11 linker to the N-terminus of mouse p35, with mouse p40) (from UniProt P43432 23-335)”, the STAT4 phosphorylation in preactivated primary mouse CD8+ T cells, EC50 compared with unmodified IL-12 (fold decrease) was found to be 100.
Turning to “M-L1-IL12-CBD (from UniProt P04275 1670-1874)”, the STAT4 phosphorylation in preactivated primary mouse CD8+ T cells, EC50 compared with unmodified IL-12 (fold decrease) was found to be 100.
On to “M-L1-IL12-MSA (from UniProt P43432 23-335)”, for which the STAT4 phosphorylation in preactivated primary mouse CD8+ T cells, EC50 compared with unmodified IL-12 (fold decrease) was found to be 100.
